Test: soluble on expression in E. coli; label from the status in PepcDB or PDB records

Sequence | soluble on expression in E. coli
MNRSLANVILGGYGTTSTAGGKPMEISGTHTEINLDNAIDMIREANSIIITPGYGLCAAKAQYPIADLVKMLTEQGKKVRFGIHPVAGRMPGQLNVLLAEAGVPYDIVLEMDEINHDFPDTDLVLVIGANDTVNSAAQEDPNSIIAGMPVLEVWKSKQVIVMKRSLGVGYAAVDNPIFYKPNTAMLLGDAKKTCDALQAKVRESYQK | soluble
MAHHHHHHMSIAKKRLAQERAEWRKDHPAGFSAKYSPMSDGKGLDIMKWICKIPGKKGGLWEGGEYPLTMEFTEDYPSKPPKCKFTTVLFHPNIYPSGTVCLSILNEDEDWKPSITIKQILLGIQDLLDNPNPNSPAQAEPFLLYQQDRDSYEKKVKKQAIEFRPKD | not soluble
MGSDKIHHHHHHMALRSMDELRQQAQGALSLNIAFIGVVNGLFSTLHALGNADSAALAAATGMDTGYVLRWCDAAYAFGWLELTDNEQWRLSEDGDRMRPEAENSRVGVAVGAVLSAHMAERAAGLMRTGERPGEKVLAERETILPWFGLMLENNFRKTFEEKICPTVPIFAEVDARGGLAVDLGCGNGWYLRALAARCGHLHGLGLDGFAENIRQATEKAQSEGIADRLHFDEGDIHQFSLPEPADLIAMNRSLHHVWENRGEIFQRLHASLKPEGAIVIWEPAWPDDHRVLREPPLRGMAFQNLTEHVQGNHFLHPEEIATALSEAGLHPEIFPFGSDVVVVGRV | not soluble
MMALDDTVTIKPIRAEHVESFHRALDAVSRERKYLSFLEAPPLEAVRAFVLDMIENDHPQFVAIADGDVIGWCDIRRQDRATRAHCGTLGMGILPAYRNKGLGARLMRRTLDAAHEFGLHRIELSVHADNARAIALYEKIGFAHEGRARDAVSIDGHYIDSLNMAIIFGN | soluble
MMIAAAIFTTCVDGNKFFYHREIKVLRHLKRFNKPALKSIKSEDGDVIDCVPITNQPAFDHHLLKNHTIQMRPSFYPVSDSTYTKREAKAVTQVWHKAGECPKNTVPIRRTKKEDLLRPKSIRSFGRKSHQSIPRTTTFDPTLGHQYALMGVRNGKFYGTEVAINLWKPYVQIPKEFSLAQTWVVSGNGSSLNTIEAGWQVYPELYDDNNPRFFVYWTRDGYRKTGCYNLLCSGFVQTSNRYTVGGSITTMSRYRGTQYDLSVLIWKDQKTGNWWLRVNEKDVIGYWPGSLFNSLGREATRVEWGGEIINSKTGGRHTTTDMGSGHFADEGFKKASYFRNLKIVDGTNTLREPQGLYFFADKHNCYNVKTGNGGTSWGAHFFYGGPGRNVKCP | soluble
MNLPDGTQLVVGRQLAKVKSNQNWIRIPEYKVRGNKVIISHLWVGSINMPRRPFWSFRELWEKHLGRKDAINVWSRIRSYNTQVLLKILELLEKEPETQAKKLVKRATMHQLRNIAESFEEL | not soluble
LFEMGLQRYLESGLRNESENLLVALVRGPAGLQLDDHRLSGAYQRPLSGHYFRMDLPQGHWRSRSLWDFELPQPGVGLHANLELGKTVQSLLMLTSEYRKFGKQISITVAQDYTPVRASFR | not soluble
MRLIVVSGQSGAGKSVALRVLEDLGYYCVDNLPVSLLTAFIQSVQGSQQNVAVSIDIRNLPKEPSLVQDVLDQLKQNNDVSMLFLDASKETLLKRYSETRRIHPLSLSQSKPSLAQAIELEKQLLGPLKEQADLLLDSSNQSLHELSETVRMRIEGRERKDLVMVFQSFGFKYGLPTDADYVFDVRFLPNPHWEPDLRPLTGLDAPIKSFLEGHSEVMELKQQIQKFFEYWLPMLEKNNRSYLTIAIGCTGGKHRSVYLTQQLGEYFAQLGHQVQLRHTSLEKQQS | not soluble
MGSDKIHHHHHHMPLLIDIRKLTLITRLIQDGAEQVADSLATLAGVDAAVEIKSLSFVQPEDIATEMGGGTIYSARVRLTEPPYGVFLMTFETETAAEIAELMTGSSVEDGFTQLHESALQEMCNILTSGFIDGIANTLNATINMGTPTVVQDDATEIADKALSHVRRDSLTIVLDSLVDIKESDVAFSLRIFLIPDPGSFVHLIDQLDYDTDRETHISADTDAVKELDMSGDADALDAFDSSK | not soluble
YFQSMEAEDFECSSHCSELSWRQNEQRRQGLFCDITLCFGGAGGREFRAHRSVLAAATEYFTPLLSGQFSESRSGRVEMRKWSSEPGPEPDTVEAVIEYMYTGRIRVSTGSVHEVLELADRFLLIRLKEFCGEFLKKKLHLSNCVAIHSLAHMYTLSQLALKAADMIRRNFHKVIQDEEFYTLPFHLIRDWLSDLEITVDSEEVLFETVLKWVQRNAEERERYFEELFKLLRLSQMKPTYLTRHVKPERLVANNEVCVKLVADAVERHALRAENIQSGT | soluble
MSSEERSRQPSTVSTFDLEPNPFEQSFASSKKALSLPGTISHPSLPKELSRNNSTSTITQHSQRSTHSLNSIPEENGNSTVTDNSNHNDVKKDSPSFLPGQQRPTIISPPILTPGGSKRLPPLLLSPSILYQANSTTNPSQNSHSVSVSNSNPSAIGVSSTSGSLYPNSSSPSGTSLIRQPRNSNVTTSNSGNGFPTNDSQMPGFLLNLSKSGLTPNESNIRTGLTPGILTQSYNYPVLPSINKNTITGSKNVNKSVTVNGSIENHPHVNIMHPTVNGTPLTPGLSSLLNLPSTGVLANPVFKSTPTTNTTDGTVNNSISNSNFSPNTSTKAAVKMDNPAEFNAIEHSAHNHKENENLTTQIENNDQFNNKTRKRKRRMSSTSSTSKASRKNSISRKNSAVTTAPAQKDDVENNKISNNVTLDENEEQERKRKEFLERNRVAASKFRKRKKEYIKKIENDLQFYESEYDDLTQVIGKLCGIIPSSSSNSQFNVNVSTPSSSSPPSTSLIALLESSISRSDYSSAMSVLSNMKQLICETNFYRRGGKNPRDDMDGQEDSFNKDTNVVKSENAGYPSVNSRPIILDKKYSLNSGANISKSNTTTNNVGNSAQNIINSCYSVTNPLVINANSDTHDTNKHDVLSTLPHNN | soluble
CLTRISRPWLVTSCIWNKQLIRRAVVWLCGLTGKPILKLTNKDYTENGLGELLAKYGSAYEVNIKLFNDIQHTITGWPGGKPNADDSSRPERALPYPKRVVIFSPHPDDDVISMGGTFHKLVNQGHDVHVAYQTSGNIAVGDEEVIRYVSYLRNVCRQYGHESSPILAKAEEVRHYLMHKKIEGDPEQEDIRFMKGTIRREEARTACRYLGLPEDHVHFLDLPFYETGLIRKNPLGEEDVRIIMALLEEIQPHRIFVAGDLADPHGTHRICLNAVLAAIDELKEESWFKEDCRVWMYRGAWAEWEIDYIEMAVPMSPDELRFKRNSILKHQSQMESAPFLGDDERLFWQRAEDRNRQTATLYEKLGLASYEAIEAFVQYRPVE | not soluble
MAILITGGAGYIGSHTCVELLNNNYKIIVVDNLSNSSIESLNRVKEITGKQFEFYKENVLNREKMNEIFLENNIEAVIHFAGFKAVGESTTTPLAYYYNNIISAIVLCDVMQKHNVKNFIFSSSATVYGIPKTLPITEEFPLSVTNPYGQTKLMIEQIMRDVAKADDEWSIALLRYFNPFGAHQSGRIGEDPNGIPNNLMPYVTQVAVGKLKELNIFGNDYPTKDGTGVRDYIHVVDLAKGHVKALEKVLKTKGIEAYNLGTGKGYSVLEMVKAFEKVSGKKIPYKVIGRRPGDVAICFADVSKAKRELGWEAEYGLEEMCVDSWRWQVNNKNGYQMI | not soluble
MTYAVEFDNVSRLYGDVRAVDGVSIAIKDGEFFSMLGPSGSGKTTCLRLIAGFEQLSGGAISIFGKPASNLPPWERDVNTVFQDYALFPHMSILDNVAYGLMVKGVNKKQRHAMAQEALEKVALGFVHQRKPSQLSGGQRQRVAIARALVNEPRVLLLDEPLGALDLKLREQMQLELKKLQQSLGITFIFVTHDQGEALSMSDRVAVFNNGRIEQVDSPRDLYMRPRTPFVAGFVGTSNVFDGLMAEKLCGMTGSFALRPEHIRLNTPGELQANGTIQAVQYQGAATRFELKLNGGEKLLVSQANMTGEELPATLTPGQQVMVSWSRDVMVPLVEER | not soluble
MFQNLLENSKKFWIVLEPYGKFKKMLLRDLRGETHRGETRRGETRRGETHRGETHRGETHRGETHRGETHRGETHRGETYRGETHRGETHRGETHRGKTQNFGGKFKFSVKNILAGNLNFLKKIFWREI | not soluble

Reference: the DeepSol protein solubility set
